Reference: publication PMC4058522, “Structural Basis for Phosphorylation-Dependent Recruitment of Tel2 to Hsp90 by Pih1” (Structure(London, England:1993), 2014)
Entries after “also recorded” stand apart in the source; their conditions may differ.

Tests used:
full-length Hsp90 dimer = experiment: ITC, Spagh/RPAP3 binding to full-length Hsp90 dimer; settings: 500 μM yeast Hsp90 into 20 μM Spagh/RPAP3^120–395, 10 mM Tris pH 7.5, 5 mM NaCl, ~1:2 molar ratio
Method: Heat of interaction was measured on an ITC200 microcalorimeter (Microcal) under the same buffer conditions (20 mM Tris, pH 7.5, containing 5 mM NaCl). Aliquots of the Tel2 peptides at 350 μM were injected into 30 μM of Pih1 at 30°C. Interactions with Tah1 or Spagh/RPAP3^120–395 were performed in 10 mM Tris pH 7.5 and 5 mM NaCl at 10°C and 30°C. Aliquots of 600 μM Tah1 were injected into 40 μM of yeast Hsp90, 400 μM of SRMEEVD injected into 30 μM Tah1, 301 μM yeast Hsp90 injected into 25 μM yeast Tah1-Pih1 complex, and 400 μM SRMEEVD injected into 30 μM yeast Tah1-Pih1 complex. For Spagh/RPAP3^120–395 experiments, aliquots of 500 μM yeast Hsp90 were injected into 20 μM Spagh/RPAP3^120–395 or 2 mM […] into 80 μM Spagh/RPAP3^120–395 or mutants (N172E, N321E, and N172E-N321E). Heats of dilution were determined by diluting injectant into buffer. Data were fitted using a curve-fitting algorithm (Microcal Origin). ATPase assays were previously described ([Prodromou et al., 1999]).

human Hsp90β = experiment: Hsp90 ATPase assay, human Hsp90β; format: biochemical; settings: 10 μM Hsp90β, 40 μM RPAP3; % maximum activity of wild type

B1: Spagh/RPAP3: tandem TPR region of human Spagh/RPAP3, residues 120–395 (protein)
chain: ESEEDGIHVDSQKALVLKEKGNKYFKQGKYDEAIDCYTKGMDADPYNPVLPTNRASAYFRLKKFAVAESDCNLAVALNRSYTKAYSRRGAARFALQKLEEAKKDYERVLELEPNNFEATNELRKISQALASKENSYPKEADIVIKSTEGERKQIEAQQNKQQAISEKDRGNGFFKEGKYERAIECYTRGIAADGANALLPANRAMAYLKIQKYEEAEKDCTQAILLDGSYSKAFARRGTARTFLGKLNEAKQDFETVLLLEPGNKQAVTELSKIKK
modifications: left off: GST, end not stated, state not stated
Q: Which results are given for B1?
A: Kd (full-length Hsp90 dimer): 6.8 µM; effect on ATPase activity of human Hsp90β (in words) (human Hsp90β): failed to show any strong regulatory effect; also recorded: no major effect
